EP1959993B1
Blank lines part the entries; values can stand above or below the substance they belong to.

Tests used:
[1] = biological target: C-DDD1-Fab-hMN-14 (human); experiment: equilibrium SE-HPLC
[2] = biological target: N-DDD1-Fab-hMN-14 (human); experiment: equilibrium SE-HPLC
[3] = biological target: recombinant human RIIα (human) (UniProt P13861); experiment: equilibrium SE-HPLC
[4] = biological target: C-DDD1-Fab-hMN-14 (human); experiment: SE-HPLC of the mixture with hMN14-Fab-DDD1; h679-Fab-AD2 not reduced
[5] = biological target: C-DDD1-Fab-hMN-14 (human); experiment: SE-HPLC of the mixture with hMN14-Fab-DDD1; h679-Fab-AD2 reduced with TCEP
[6] = biological target: fusion protein containing the A3B3 domain of CEA (UniProt P06731); experiment: competitive ELISA against HRP-conjugated hMN-14 IgG on the A3B3 fusion protein
CEA = CEA (UniProt P06731); experiment: SE-HPLC of 125I-TF2 mixed with a 20-fold molar excess of CEA

UniProt P13861, sequence (P13861 whole entry): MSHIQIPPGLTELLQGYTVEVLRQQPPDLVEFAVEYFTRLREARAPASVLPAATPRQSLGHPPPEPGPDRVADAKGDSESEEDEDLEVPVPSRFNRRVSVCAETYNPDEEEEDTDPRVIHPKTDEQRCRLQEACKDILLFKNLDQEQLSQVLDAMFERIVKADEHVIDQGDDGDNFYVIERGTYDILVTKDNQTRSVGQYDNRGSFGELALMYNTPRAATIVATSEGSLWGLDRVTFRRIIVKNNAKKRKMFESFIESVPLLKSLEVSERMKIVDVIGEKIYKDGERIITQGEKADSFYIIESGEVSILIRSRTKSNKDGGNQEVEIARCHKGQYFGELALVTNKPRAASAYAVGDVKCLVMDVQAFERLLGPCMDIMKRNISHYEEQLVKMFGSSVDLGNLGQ

- Kd [1]: 15 nM
- Kd [2]: 8 nM
- Kd [3]: 30 nM
Substance: h679-Fab-AD1

- fraction reactive [4]: 0.33
- percent activity [5]: 100%
Substance: h679-Fab-AD2

- avidity, fold against TF1 [6]: 2 fold
- percent shifted to a high molecular weight species (CEA): 95%
Substance: TF2 (bispecific antibody)
